Experimental data from the Human Domainome abundance scans (Beltran et al. 2025).
± gives the uncertainty stated by the source.

B1: POU domain, class 3, transcription factor 2, residues 356 to 411; numbered along this chain, P20265 (parent)
chain: KKRTSIEVSVKGALESHFLKCPKPSAQEITSLADSLQLEKEVVRVWFCNRRQKEKR

Variants of: B1
Assay: abundance fitness (aPCA) (normalised: wild type 0, dead -1); higher = more abundant; growth selection in yeast, the domain comes from the species named
Conditions: Homo sapiens

Variant | abundance fitness
V45D | 0.07 ± 0.078
F18W | -0.335 ± 0.1
P22A | -0.044 ± 0.088
S25F | -0.902 ± 0.3
P24I | -0.919 ± 0.38
K1D | 0.082 ± 0.15
R51I | -0.397 ± 0.14
V43T | -0.841 ± 0.12
Q27V | -0.061 ± 0.082
K1T | -0.206 ± 0.14
Q37M | -0.151 ± 0.1
H17C | -0.283 ± 0.12
E28T | -0.088 ± 0.12
E54C | -0.284 ± 0.15
A13H | -0.196 ± 0.2
S35G | -0.033 ± 0.08
R50P | -0.982 ± 0.23
E7G | 0.077 ± 0.081
C21K | -0.478 ± 0.19
C21M | -0.354 ± 0.11
R3Y | 0.026 ± 0.18
C48M | -0.052 ± 0.15
L19E | -0.026 ± 0.095
S16W | -0.399 ± 0.11

Variant | abundance fitness
C48F | 0.078 ± 0.12
K23Y | -0.312 ± 0.16
S35R | 0.051 ± 0.083
K55A | 0.139 ± 0.12
R56G | 0.042 ± 0.1
T30S | 0.036 ± 0.077
W46S | -0.698 ± 0.1
K53A | -0.602 ± 0.34
L36F | -0.291 ± 0.13
K2C | -0.395 ± 0.2
K23D | 0.093 ± 0.17
Q37C | 0.087 ± 0.14
K2R | -0.166 ± 0.099
V43D | -0.958 ± 0.19
W46I | -0.932 ± 0.19
H17L | -0.292 ± 0.079
K2E | -0.07 ± 0.18
E15S | -0.959 ± 0.14
N49K | -0.056 ± 0.12
R50W | -0.924 ± 0.13
R50Q | -0.161 ± 0.16
R44E | 0.027 ± 0.12
I29Y | -0.741 ± 0.17
A26W | -0.11 ± 0.12

Variant | abundance fitness
V42E | 0.01 ± 0.096
K55C | -0.33 ± 0.16
K20M | -0.336 ± 0.12
A33Y | -0.963 ± 0.2
L19R | 0.006 ± 0.068
F47G | -0.698 ± 0.14
A13L | -0.074 ± 0.084
H17I | -0.289 ± 0.16
V42D | 0.051 ± 0.19
S5A | -0.001 ± 0.12
Q27K | -0.014 ± 0.15
V8P | 0.119 ± 0.17
C48N | -0.165 ± 0.19
A13S | -0.162 ± 0.09
I6C | -0.172 ± 0.11
V45F | -0.175 ± 0.094
K55R | -0.211 ± 0.11
E54D | -0.185 ± 0.15
L36N | -0.543 ± 0.14
E39Y | -0.653 ± 0.16
L38S | -0.924 ± 0.13
K55E | 0.093 ± 0.14
S5T | 0.173 ± 0.1
K40H | 0.132 ± 0.21

Variant | abundance fitness
R44A | -0.027 ± 0.083
W46L | -0.934 ± 0.091
P24L | -0.936 ± 0.12
R3K | 0.054 ± 0.21
K20G | -0.466 ± 0.09
A26Q | 0.01 ± 0.14
R50D | -0.849 ± 0.19
L14C | -0.78 ± 0.2
V10M | -0.134 ± 0.16
V42M | -0.299 ± 0.11
I6Y | -0.239 ± 0.16
R44Q | -0.057 ± 0.1
Q37T | -0.316 ± 0.11
F18T | -1.2 ± 0.4
S25G | -0.194 ± 0.087
E15N | -0.693 ± 0.18
G12K | -0.056 ± 0.15
R3C | 0.246 ± 0.12
V45I | 0.01 ± 0.12
E41L | -0.881 ± 0.1
S35F | -0.22 ± 0.11
K40C | -0.153 ± 0.095
L38Q | -0.519 ± 0.12
R50E | -0.398 ± 0.12

Variant | abundance fitness
R56N | 0.008 ± 0.42
K2T | -0.21 ± 0.14
N49E | 0.066 ± 0.12
S16N | -0.297 ± 0.15
N49C | -0.14 ± 0.11
F47L | -0.722 ± 0.1
E15Q | -0.527 ± 0.24
E15W | -0.822 ± 0.15
E54K | -0.495 ± 0.18
S9L | -0.153 ± 0.11
F18K | -0.936 ± 0.3
E28V | -0.195 ± 0.086
L32K | -0.927 ± 0.33
K23W | -0.336 ± 0.13
S9F | -0.366 ± 0.1
F47E | -0.672 ± 0.17
T4P | -0.101 ± 0.12
L19T | -0.183 ± 0.12
S25M | -0.446 ± 0.19
E28N | -0.551 ± 0.22
E39C | -0.133 ± 0.093
H17E | -0.139 ± 0.1
V10E | -0.068 ± 0.13
E28M | -0.437 ± 0.17

Variant | abundance fitness
A26D | 0.151 ± 0.13
E28L | -0.369 ± 0.1
L14W | -0.915 ± 0.14
P24V | -0.821 ± 0.096
S35Y | -0.115 ± 0.13
K23P | -0.863 ± 0.17
D34A | 0.082 ± 0.092
V43G | -0.906 ± 0.12
S16Y | -0.382 ± 0.16
V43R | -0.95 ± 0.11
W46D | -0.318 ± 0.38
V10I | -0.013 ± 0.12
C48Q | 0.141 ± 0.15
C48E | 0.149 ± 0.15
V8L | 0.007 ± 0.09
L32E | -0.916 ± 0.21
E41M | -0.791 ± 0.2
K40S | -0.036 ± 0.085
I6G | -0.119 ± 0.071
V42Q | -0.136 ± 0.16
S16T | -0.034 ± 0.11
K2M | -0.072 ± 0.13
Q27C | -0.081 ± 0.1
V42R | -0.363 ± 0.079

Variant | abundance fitness
L19M | 0.007 ± 0.11
E15I | -0.649 ± 0.14
N49Q | -0.005 ± 0.088
T4Y | -0.209 ± 0.14
L36Y | -0.151 ± 0.14
H17A | 0.127 ± 0.1
A26I | -0.05 ± 0.14
E15D | -0.623 ± 0.18
Q27T | 0.02 ± 0.11
K55V | -0.116 ± 0.1
L32Y | -0.831 ± 0.21
R56V | -0.033 ± 0.13
K2N | -0.339 ± 0.2
A13V | 0.042 ± 0.097
K1N | -0.012 ± 0.2
V42K | -0.116 ± 0.14
N49Y | -0.396 ± 0.13
G12I | 0.193 ± 0.13
F47V | -0.784 ± 0.13
F47C | -0.937 ± 0.27
E54T | -0.518 ± 0.15
S9Q | 0.1 ± 0.21
R51P | -0.831 ± 0.14
